The values that follow come from patent publication US7374891B2, “Methods to identify compounds that modulate rage” (TransTech Pharma, Inc., priority 2000, dated 2008).

Like-named read-outs stand apart in the source and are kept apart here.

This assay addresses T1, S-100b (Homo sapiens, UniProt P04271).
T1 sequence (P04271 2-92 limits assumed): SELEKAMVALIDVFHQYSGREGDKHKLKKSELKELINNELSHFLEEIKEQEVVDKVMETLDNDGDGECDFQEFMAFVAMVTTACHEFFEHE
Nature of the assay: Saturation binding of sRAGE to immobilized S-100b (ELISA, Scatchard analysis). The method, then: Generally, the protocol for detection of RAGE modulators is as follows. RAGE ligand (e.g. S-100b, β-amyloid, CML) is diluted to 5 μg/ml in buffer A (fixing buffer) (100 mM Na2CO3/NaHCO3, pH 9.8) and 100 μl added to microtiter plate wells and allowed to incubate overnight at 4° C. to allow the ligand to become fixed to the surface of the wells. Wells are then washed 3 times with 400 μl/well buffer C (wash buffer) (20 mM Imidazole, 150 mM NaCl, pH 7.2), with a 5 second soak in buffer C between each wash. Buffer B (blocking buffer) (50 mM Imidazole pH 7.2, 5% BSA, 5 mM CaCl2, 5 mM MgCl2) is then added to the wells and allowed to incubate for 2 hours at 37° C. to block nonspecific protein binding sites. The blocking buffer is then aspirated from the wells, and the plate washed 3 times (400 μl/well) with buffer C, with a 5 second soak in buffer C between each wash. The compound of interest, 25 μl dissolved in 2% DMSO FAC (Final Assay Concentration ) and sRAGE (75 μl) (2.2×10^−4 mg/ml FAC) are then added to each well, and incubated 1 hour at 37° C. Meanwhile, polyclonal antibody or monoclonal antibody for sRAGE (e.g. 3.0×10^−3 mg/ml and 1.9×10^−4 mg/ml FAC, respectively), biotinylated goat F (ab′)2 anti-mouse IgG (e.g. 8.0×10^−4mg/ml FAC) (Biosource International, Camarillo, Calif. (TAGO)), and alkaline phosphatase labeled streptavidin (3.0×10^−3 mg/ml FAC) (ZYMED, San Francisco, Calif.) are added to 5 ml of buffer D (complex buffer) (50 mM Imidazole, pH 7.2; 0.2% BSA, 5 mM CaCl2, 5 mM MgCl2) in a 15 ml conical tube and allowed to incubate 30 minutes at room temperature.
The solution containing sRAGE and the compound of interest is then aspirated from each well, and after 3 washes with wash buffer, with a 5 second soak between each wash, the anti-sRAGE:IgG:streptavidin-alkaline phosphatase complex is added to each well (100 μl complex per well). After 1 hour at room temperature, the solution in each well is aspirated, and the wells washed 3 times, with 5 second soaks between each wash.
The alkaline phosphatase substrate, para-nitrophenyl phosphate (pNPP) (1 mg/ml in 1 M diethanolamine, pH 9.8), is added and the color allowed to develop for 1 hr in the dark. After the addition of 10 μl stop solution per well (0.5 N NaOH; 50% methanol), the OD405 is measured.
In the experiment shown in FIG. 10, wells were coated by incubation with 500 ng/well S-100b overnight, and after washing, sRAGE diluted in buffer D added to the final concentrations shown. […]
The utility of the assay for detecting compounds which antagonize both low and high affinity RAGE binding domains is shown in FIGS. 8-11. […] The amount of sRAGE bound to the immobilized ligand was detected using anti-sRAGE polyclonal or monoclonal antibody (3.0×10^−3 mg/ml and 1.9×10^−4 mg/ml FAC, respectively) and the development system as described in Example 1. Plots were linearized by means of Scatchard analysis and values for Kd and Bmax determined. Statistical analysis of experimental precision was determined by utilizing GraghPad Prisam version 3 software (GraphPad Software, Inc. San Diego, Calif.).
Both low and high affinity binding of sRAGE to S-100b are detected using the assay method of the invention. […] After washing, sRAGE comprising a final concentration ranging from about 0.3 to 10 nM was added to each well, and after 1 hour at 37° C., bound sRAGE was measured by the addition of polyclonal antibody complex. […]
In general terms: In an ELISA, binding on a coated surface is turned into a signal by an enzyme label.

For the substance “sRAGE: soluble, extracellular portion of RAGE, as defined by the amino acid sequence SEQ ID NO: 2”, the Kd reads like this: (S-100b 50 ng/well, sRAGE about 0.3 to 10 nM, FIG. 8, read-out: Kd, high affinity binding component) around 6 nM; (S-100b 100 ng/well, sRAGE about 0.3 to 10 nM, FIG. 9, read-out: Kd, high affinity binding component) around 2 nM; (S-100b 500 ng/well, four separate determinations, FIG. 10, read-out: Kd value) 60 nM; (S-100b 500 and 100 ng/well, sRAGE 24 to 480 nM and 5 to 80 nM, FIGS. 10 and 11, read-out: Kd, low affinity binding site) around 60 nM; (sRAGE 0.3 to 10 nM, FIGS. 8 and 9, read-out: Kd, high affinity binding site) 2 to 6 nM.

The term Kd denotes the equilibrium constant for the complex coming apart.
